Measurements as given in US20150158934A1.

Assays:
Assay in all cases: SPR
[1] = biological target: gp140UG37 (subtype A), gp140 envelope glycoprotein from the HIV-1 group M A-clade isolate 92UG037 (HIV-1)
[2] = biological target: CA018 gp140/420 (A/G) (HIV-1)
[3] = biological target: gp140CN54 (subtype B'/C), gp140 envelope glycoprotein from the HIV-1 group M CRF07-B/C-clade isolate 97CN54 (HIV-1)
[4] = biological target: gp120IIIB (subgroup B) (HIV-1) (UniProt P04578)

## mAb 2F5 (antibody)
[1]
  Kd: 58.5 nM
  koff: 0.422 s⁻¹
  kon: 80900 M⁻¹ s⁻¹

## mAb 2G12 (antibody)
[2]
  Kd: 537 nM
  koff: 0.342 s⁻¹
  kon: 500000 M⁻¹ s⁻¹
[1]
  Kd: 393 nM
  koff: 0.349 s⁻¹
  kon: 695000 M⁻¹ s⁻¹

## mAb 17b (antibody)
[2]
  Kd: 1.07 nM
  koff: 0.000637 s⁻¹
  kon: 593000 M⁻¹ s⁻¹
[3]
  Kd: 6.15 nM
  koff: 0.000171 s⁻¹
  kon: 27700 M⁻¹ s⁻¹
[1]
  Kd: 2.64 nM
  koff: 0.000135 s⁻¹
  kon: 51000 M⁻¹ s⁻¹

## mAb HJ16 (antibody)
[4]
  Kd: 3.03 nM
  koff: 0.000156 s⁻¹
  kon: 51500 M⁻¹ s⁻¹
[2]
  Kd: 1030 nM
  koff: 0.0382 s⁻¹
  kon: 37200 M⁻¹ s⁻¹
[1]
  Kd: 88.5 nM
  koff: 0.341 s⁻¹
  kon: 424000 M⁻¹ s⁻¹

## mAb b12 (antibody)
[2]
  Kd: 18.8 nM
  koff: 0.0271 s⁻¹
  kon: 1.43e+06 M⁻¹ s⁻¹
[3]
  Kd: 167 nM
  koff: 0.00228 s⁻¹
  kon: 13600 M⁻¹ s⁻¹
[1]
  Kd: 233 nM
  koff: 0.301 s⁻¹
  kon: 1.29e+06 M⁻¹ s⁻¹

## sCD4 (2-D) (from UniProt P01730 26-208) (receptor)
[4]
  Kd: 0.942 nM
  koff: 6e-05 s⁻¹
  kon: 63700 M⁻¹ s⁻¹
[1]
  Kd: 39.8 nM
  koff: 0.000249 s⁻¹
  kon: 6250 M⁻¹ s⁻¹
